Source: article PMC9482650, “Quantitative fragmentomics allow affinity mapping of interactomes” (Nature Communications, 2022)
Each block holds one binder with its values, some of them ahead of it.

Tests used:
Experiment in all cases: holdup assay
Design in all cases: key: below the threshold = too weak to quantify, mostly under pKd 3.1 to 4
GRIP1_2, Q9Y3R0 = target: T1, GRIP1_2, Q9Y3R0
T1 sequence (Q9Y3R0 145-248, limits assumed, looked up): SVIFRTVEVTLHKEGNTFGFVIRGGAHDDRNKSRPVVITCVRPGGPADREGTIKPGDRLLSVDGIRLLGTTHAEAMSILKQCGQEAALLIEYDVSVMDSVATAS

MAGI2_5, Q86UL8 = target: MAGI2_5, Q86UL8
Inadl_3, Q8NI35 = target: Inadl_3, Q8NI35
GRASP, Q7Z6J2 = target: GRASP, Q7Z6J2
HTRA2, O43464 = target: HTRA2, O43464
CARD11, Q9BXL7 = target: T2, CARD11, Q9BXL7
T2 sequence (Q9BXL7 662-765, limits assumed, looked up): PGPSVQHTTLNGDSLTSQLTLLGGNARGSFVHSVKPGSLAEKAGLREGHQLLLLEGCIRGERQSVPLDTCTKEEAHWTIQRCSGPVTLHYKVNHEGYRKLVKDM

APBA2_1, Q99767 = target: T3, APBA2_1, Q99767
T3 sequence (Q99767 563-664, limits assumed, looked up): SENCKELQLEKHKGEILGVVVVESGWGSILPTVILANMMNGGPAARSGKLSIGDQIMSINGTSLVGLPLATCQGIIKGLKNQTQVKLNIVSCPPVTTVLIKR

MPP7, Q5T2T1 = target: T4, MPP7, Q5T2T1
T4 sequence (Q5T2T1 134-230, limits assumed, looked up): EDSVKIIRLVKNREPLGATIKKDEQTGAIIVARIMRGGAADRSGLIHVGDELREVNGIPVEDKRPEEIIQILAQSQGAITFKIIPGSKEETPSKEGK

LNX1_2, Q8TBB1 = target: LNX1_2, Q8TBB1
PTPN13_1, Q12923 = target: T5, PTPN13_1, Q12923
T5 sequence (Q12923 1088-1188, limits assumed, looked up): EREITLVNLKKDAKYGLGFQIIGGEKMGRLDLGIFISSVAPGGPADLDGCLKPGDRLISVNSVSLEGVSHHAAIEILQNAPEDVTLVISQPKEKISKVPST

GORASP1, Q9BQQ3 = target: GORASP1, Q9BQQ3
RADIL, Q96JH8 = target: T6, RADIL, Q96JH8
T6 sequence (Q96JH8 971-1071, limits assumed, looked up): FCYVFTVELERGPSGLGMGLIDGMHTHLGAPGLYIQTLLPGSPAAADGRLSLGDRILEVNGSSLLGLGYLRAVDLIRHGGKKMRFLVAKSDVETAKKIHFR

NHERF3_3, Q5T2W1 = target: T7, NHERF3_3, Q5T2W1
T7 sequence (Q5T2W1 238-333, limits assumed, looked up): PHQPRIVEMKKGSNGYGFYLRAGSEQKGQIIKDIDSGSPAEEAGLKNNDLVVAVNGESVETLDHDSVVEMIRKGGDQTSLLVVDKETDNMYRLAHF

TJP1_2, Q07157 = target: TJP1_2, Q07157
LNX2_2, Q8N448 = target: T8, LNX2_2, Q8N448
T8 sequence (Q8N448 334-432, limits assumed, looked up): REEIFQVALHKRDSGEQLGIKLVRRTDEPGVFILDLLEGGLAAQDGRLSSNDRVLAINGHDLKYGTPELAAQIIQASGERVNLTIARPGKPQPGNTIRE

APBA1_2, Q02410 = target: T9, APBA1_2, Q02410
T9 sequence (Q02410 742-832, limits assumed, looked up): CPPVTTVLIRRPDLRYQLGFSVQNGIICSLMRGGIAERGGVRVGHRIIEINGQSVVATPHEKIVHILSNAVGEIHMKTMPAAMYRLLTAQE

GRIP1_4, Q9Y3R0 = target: T10, GRIP1_4, Q9Y3R0
T10 sequence (Q9Y3R0 467-571, limits assumed, looked up): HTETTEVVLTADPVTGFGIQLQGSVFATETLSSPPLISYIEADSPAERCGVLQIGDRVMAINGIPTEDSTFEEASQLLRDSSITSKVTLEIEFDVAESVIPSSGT

AHNAK1, Q09666 = target: AHNAK1, Q09666
MPDZ_12, O75970 = target: T11, MPDZ_12, O75970
T11 sequence (O75970 1857-1958, limits assumed, looked up): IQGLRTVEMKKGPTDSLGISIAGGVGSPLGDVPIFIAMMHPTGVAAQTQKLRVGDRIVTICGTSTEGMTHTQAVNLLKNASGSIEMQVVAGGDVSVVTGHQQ

CASK, O14936 = target: CASK, O14936
Inadl_5, Q8NI35 = target: Inadl_5, Q8NI35
PDZD7_3, Q9H5P4 = target: T12, PDZD7_3, Q9H5P4
T12 sequence (Q9H5P4 857-944, limits assumed, looked up): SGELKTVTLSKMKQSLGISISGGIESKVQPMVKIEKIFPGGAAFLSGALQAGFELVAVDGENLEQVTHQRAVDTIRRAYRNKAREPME

APBA3_1, O96018 = target: T13, APBA3_1, O96018
T13 sequence (O96018 389-490, limits assumed, looked up): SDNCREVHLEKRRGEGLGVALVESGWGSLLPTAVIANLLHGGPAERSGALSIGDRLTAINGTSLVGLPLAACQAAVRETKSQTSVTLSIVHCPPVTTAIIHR

MAST1, Q9Y2H9 = target: MAST1, Q9Y2H9
[1] = plain residues with an end cap or a label only (N-terminal biotin on a linker: ahx)
[2] = plain residues with an end cap or a label only (N-terminal biotin on a linker: ttds)
[3] = plain residues with an end cap or a label only (N-terminal biotin on a linker: ado-ado)

Sequence of Inadl_5, Q8NI35 (Q8NI35 673-780): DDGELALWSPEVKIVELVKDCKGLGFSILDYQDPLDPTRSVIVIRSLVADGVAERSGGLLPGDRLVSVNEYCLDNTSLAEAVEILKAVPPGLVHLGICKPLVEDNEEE
Sequence of GRASP, Q7Z6J2 (Q7Z6J2 96-193): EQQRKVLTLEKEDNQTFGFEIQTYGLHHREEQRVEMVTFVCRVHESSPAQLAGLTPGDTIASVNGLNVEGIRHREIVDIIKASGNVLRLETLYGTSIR
Sequence of LNX1_2, Q8TBB1 (Q8TBB1 371-470): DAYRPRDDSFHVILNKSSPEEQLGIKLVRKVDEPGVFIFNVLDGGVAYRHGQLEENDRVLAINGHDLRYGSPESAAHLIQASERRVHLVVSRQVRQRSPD
Sequence of MAST1, Q9Y2H9 (Q9Y2H9 962-1065): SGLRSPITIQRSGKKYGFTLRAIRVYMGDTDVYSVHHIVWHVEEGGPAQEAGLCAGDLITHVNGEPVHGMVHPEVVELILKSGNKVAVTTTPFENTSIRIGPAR
Sequence of MAGI2_5, Q86UL8 (Q86UL8 915-1017): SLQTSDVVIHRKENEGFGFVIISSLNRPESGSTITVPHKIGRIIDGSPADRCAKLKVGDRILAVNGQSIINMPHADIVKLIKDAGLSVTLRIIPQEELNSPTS
Sequence of GORASP1, Q9BQQ3 (Q9BQQ3 1-208): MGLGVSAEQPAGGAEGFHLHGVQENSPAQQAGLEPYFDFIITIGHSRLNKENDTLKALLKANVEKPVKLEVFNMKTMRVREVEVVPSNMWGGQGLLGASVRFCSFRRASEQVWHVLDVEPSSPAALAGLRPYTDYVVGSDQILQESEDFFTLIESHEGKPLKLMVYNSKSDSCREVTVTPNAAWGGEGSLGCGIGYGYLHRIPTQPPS
Sequence of Inadl_3, Q8NI35 (Q8NI35 359-469): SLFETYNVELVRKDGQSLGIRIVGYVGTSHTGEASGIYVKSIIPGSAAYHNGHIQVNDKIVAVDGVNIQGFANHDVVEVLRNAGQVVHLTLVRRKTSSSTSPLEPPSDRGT
Sequence of TJP1_2, Q07157 (Q07157 181-274): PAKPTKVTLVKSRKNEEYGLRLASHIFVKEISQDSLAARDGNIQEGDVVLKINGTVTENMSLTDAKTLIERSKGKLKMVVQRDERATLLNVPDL
Sequence of HTRA2, O43464 (O43464 355-458): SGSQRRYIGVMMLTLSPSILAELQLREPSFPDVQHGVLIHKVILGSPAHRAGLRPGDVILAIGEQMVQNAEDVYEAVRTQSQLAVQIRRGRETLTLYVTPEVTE
Sequence of CASK, O14936 (O14936 487-570): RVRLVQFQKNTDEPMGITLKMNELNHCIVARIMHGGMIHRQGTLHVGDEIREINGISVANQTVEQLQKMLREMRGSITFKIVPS
Sequence of AHNAK1, Q09666 (Q09666 4-100): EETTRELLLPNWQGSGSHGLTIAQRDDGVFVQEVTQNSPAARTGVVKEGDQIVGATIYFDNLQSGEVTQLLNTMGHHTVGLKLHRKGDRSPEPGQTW

- pKd (GRIP1_2, Q9Y3R0; [1]): below the threshold
- pKd (MAGI2_5, Q86UL8; [1]): 3.54
- pKd (Inadl_3, Q8NI35; [1]): 3.95
- pKd (GRASP, Q7Z6J2; [1]): below the threshold
- pKd (HTRA2, O43464; [1]): below the threshold
- pKd (CARD11, Q9BXL7; [1]): below the threshold
- pKd (APBA2_1, Q99767; [1]): below the threshold
- pKd (MPP7, Q5T2T1; [1]): 5.02
- pKd (LNX1_2, Q8TBB1; [1]): below the threshold
- pKd (PTPN13_1, Q12923; [1]): below the threshold
- pKd (GORASP1, Q9BQQ3; [1]): below the threshold
- pKd (RADIL, Q96JH8; [1]): 4.3
- pKd (NHERF3_3, Q5T2W1; [1]): below the threshold
- pKd (TJP1_2, Q07157; [1]): below the threshold
- pKd (LNX2_2, Q8N448; [1]): below the threshold
- pKd (APBA1_2, Q02410; [1]): 4.47
- pKd (GRIP1_4, Q9Y3R0; [1]): below the threshold
- pKd (AHNAK1, Q09666; [1]): below the threshold
- pKd (MPDZ_12, O75970; [1]): below the threshold
- pKd (CASK, O14936; [1]): 3.79
- pKd (Inadl_5, Q8NI35; [1]): 3.61
- pKd (PDZD7_3, Q9H5P4; [1]): below the threshold
- pKd (APBA3_1, O96018; [1]): below the threshold
- pKd (MAST1, Q9Y2H9; [1]): 4.3
Binder: VNENQKEYFF [CNTNAP4, Q9C0A0]

- pKd (GRIP1_2, Q9Y3R0; [2]): 3.45
- pKd (MAGI2_5, Q86UL8; [2]): below the threshold
- pKd (Inadl_3, Q8NI35; [2]): below the threshold
- pKd (GRASP, Q7Z6J2; [2]): below the threshold
- pKd (HTRA2, O43464; [2]): below the threshold
- pKd (CARD11, Q9BXL7; [2]): below the threshold
- pKd (APBA2_1, Q99767; [2]): below the threshold
- pKd (MPP7, Q5T2T1; [2]): below the threshold
- pKd (LNX1_2, Q8TBB1; [2]): below the threshold
- pKd (PTPN13_1, Q12923; [2]): below the threshold
- pKd (GORASP1, Q9BQQ3; [2]): 3.38
- pKd (RADIL, Q96JH8; [2]): below the threshold
- pKd (NHERF3_3, Q5T2W1; [2]): below the threshold
- pKd (TJP1_2, Q07157; [2]): below the threshold
- pKd (LNX2_2, Q8N448; [2]): below the threshold
- pKd (APBA1_2, Q02410; [2]): 3.32
- pKd (GRIP1_4, Q9Y3R0; [2]): below the threshold
- pKd (AHNAK1, Q09666; [2]): below the threshold
- pKd (MPDZ_12, O75970; [2]): below the threshold
- pKd (CASK, O14936; [2]): below the threshold
- pKd (Inadl_5, Q8NI35; [2]): below the threshold
- pKd (PDZD7_3, Q9H5P4; [2]): 4.89
- pKd (APBA3_1, O96018; [2]): below the threshold
- pKd (MAST1, Q9Y2H9; [2]): 4.56
Binder: PSRDRKETSI [RALBP1, Q15311]

- pKd (GRIP1_2, Q9Y3R0; [3]): below the threshold
- pKd (MAGI2_5, Q86UL8; [3]): below the threshold
- pKd (Inadl_3, Q8NI35; [3]): below the threshold
- pKd (GRASP, Q7Z6J2; [3]): below the threshold
- pKd (HTRA2, O43464; [3]): below the threshold
- pKd (CARD11, Q9BXL7; [3]): below the threshold
- pKd (APBA2_1, Q99767; [3]): below the threshold
- pKd (MPP7, Q5T2T1; [3]): below the threshold
- pKd (LNX1_2, Q8TBB1; [3]): below the threshold
- pKd (PTPN13_1, Q12923; [3]): below the threshold
- pKd (GORASP1, Q9BQQ3; [3]): below the threshold
- pKd (RADIL, Q96JH8; [3]): 3.61
- pKd (NHERF3_3, Q5T2W1; [3]): below the threshold
- pKd (TJP1_2, Q07157; [3]): below the threshold
- pKd (LNX2_2, Q8N448; [3]): below the threshold
- pKd (APBA1_2, Q02410; [3]): 3.97
- pKd (GRIP1_4, Q9Y3R0; [3]): below the threshold
- pKd (AHNAK1, Q09666; [3]): below the threshold
- pKd (MPDZ_12, O75970; [3]): below the threshold
- pKd (CASK, O14936; [3]): below the threshold
- pKd (Inadl_5, Q8NI35; [3]): below the threshold
- pKd (PDZD7_3, Q9H5P4; [3]): below the threshold
- pKd (APBA3_1, O96018; [3]): below the threshold
- pKd (MAST1, Q9Y2H9; [3]): below the threshold
Binder: SQDPKKPSRV [CBY2, Q8NA61]

- pKd (GRIP1_2, Q9Y3R0; [3]): below the threshold
- pKd (MAGI2_5, Q86UL8; [3]): below the threshold
- pKd (Inadl_3, Q8NI35; [3]): below the threshold
- pKd (GRASP, Q7Z6J2; [3]): below the threshold
- pKd (HTRA2, O43464; [3]): below the threshold
- pKd (CARD11, Q9BXL7; [3]): below the threshold
- pKd (APBA2_1, Q99767; [3]): below the threshold
- pKd (MPP7, Q5T2T1; [3]): below the threshold
- pKd (LNX1_2, Q8TBB1; [3]): below the threshold
- pKd (PTPN13_1, Q12923; [3]): below the threshold
- pKd (GORASP1, Q9BQQ3; [3]): below the threshold
- pKd (RADIL, Q96JH8; [3]): below the threshold
- pKd (NHERF3_3, Q5T2W1; [3]): 3.61
- pKd (TJP1_2, Q07157; [3]): below the threshold
- pKd (LNX2_2, Q8N448; [3]): below the threshold
- pKd (APBA1_2, Q02410; [3]): below the threshold
- pKd (GRIP1_4, Q9Y3R0; [3]): below the threshold
- pKd (AHNAK1, Q09666; [3]): below the threshold
- pKd (MPDZ_12, O75970; [3]): below the threshold
- pKd (CASK, O14936; [3]): below the threshold
- pKd (Inadl_5, Q8NI35; [3]): below the threshold
- pKd (PDZD7_3, Q9H5P4; [3]): below the threshold
- pKd (APBA3_1, O96018; [3]): below the threshold
- pKd (MAST1, Q9Y2H9; [3]): 4.67
Binder: EKPIDSETKM [SLC1A3, P43003]
